Data published in the nanobody polyreactivity screen of Harvey et al. (2022).

Test: yeast display, Sf9 membrane polyspecificity reagent, FACS + sequencing; frameworks hold sequencing errors
Summary of the method: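 Sorting gates, low and high (top ~1%), were placed on anti-HA fluorescence to track expression and on streptavidin fluorescence to track reagent binding. A clone's polyreactivity label is taken from the gate it came out of. The reagent was 10% biotinylated, detergent-solubilized Sf9 membrane, applied for 1 hour at 4 °C to galactose-induced yeast display cells.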

## QVHLEESGRGLLQAGGSLRLSCDASGSTQNLYVMGWYRQAPGKESELVAAITSRGGRTYYADSVKGRFTISRDNAKNTVYLHMNSLKPEDTAVYYCAATKKTGYYRYYYWGQGTQVTVSS
  polyreactivity (PSR sort gate): high polyreactivity

## QVHLGDSGGGLVQAGGSLRLSCAASGRIFWTYAMGWYRQAPGKERELVAAIRWSSGSTRYADSVKGRFTISRDNAKNTVYLQLNSVKPEDTAVYYCAADAFRSQRPYTYDYWGQGTQVTVSS
  polyreactivity (PSR sort gate): high polyreactivity

## QVHLGESGGRLVQPGGSLRLSCAASGCTFCPYAMGWSRQAPGKARELVAAISNGGGPKYADSVKCRFTISRDNAKHTVYLQMNSLKPEDTAVYYCAKTLWTGRAWYDYWGQGTQVTVSS
  polyreactivity (PSR sort gate): high polyreactivity

## QVHLHESGGGLVQAGGSLRLSCAASGTISYAGPMGWYRQAPGKEREFVAGIGVGSNTNYADSVKGRYTIIRDNAKNTLYLQKNSLKTEDTAVYYCAVAGYAPLGRPYWGQGTQVTVSS
  polyreactivity (PSR sort gate): low polyreactivity

## QVHLQERGGGLVQAGGSLRLSCAASGSIFYWPWMGWYRQAPGREREFVATITTGSNTYYADSMKGHLTNSRDNAINTVYLQMISQKPEDTAVYFCAVVGDGEIEHRYWGQGTQVTVSS
  polyreactivity (PSR sort gate): high polyreactivity

## QVHLQESGCGLVQAGGSLRLSCAPSGSIFVSVTMGWYRQAPGKERELVASIGRGSTTNHADSVKGRFTISRDNAKNIVYLLMNSLKPEDTAVYFCAALESYGKYHGYWGQGTKVTVSS
  polyreactivity (PSR sort gate): low polyreactivity

## QVHLQESGGGLVKAGGSLRLSCAASGNISNHNDMGWYRQAPGKEREFVAGITAGGITNYADSVKGRFTISRDNAKNTVYLQMNSLKPEDTAVYYCAASPDYAKSYGYWGQGTQATVSS
  polyreactivity (PSR sort gate): low polyreactivity

## QVHLQESGGGLVQAGGSLRLSCAASGTIFRFRNMGWHRQAPGKERELVAGINGGTTTYYADSVIGRFTISRDNAKNTVYLQMNSLKPDDTAVYNCAAGASRLTYYDYWGQGTQVTVSS
  polyreactivity (PSR sort gate): low polyreactivity

## QVHLQESGGGLVQAGGSLRLSCAASGTISQEDWMGWYRQAPGKEREFVAAIGLGSNTNYADSLKGRFTISRDNAKNSVYLQKNSLKPEDTAVYYFAVSVWQYSDHVYRGQGTQVTVSS
  polyreactivity (PSR sort gate): low polyreactivity

## QVHLQESGGGLVQAGGSLRLSCAASGTITVLYKMGWFRQAPGKEREFVASINYGTSTYYADSVKGRFTVSRDSAKNTVYLQMNSLKPEDTAVYYCAAAYRWQDVYRYWGQGTQVTVSS
  polyreactivity (PSR sort gate): low polyreactivity

## QVHLQESGGGQVQAGGSLRLSCAASGSISYASGMGWYRQAPGTEREFVASIDPGAITNYADSVKGRFTISHDNAKNTVYLQMNSLKPEYTAVYYCAARVSTTDSHGYWGQGTQVTVSS
  polyreactivity (PSR sort gate): high polyreactivity

## QVHLVASGGGLVQAGGSLRLSCAASGSIFRRYAKGSYRQAPGKERELGAGISSGGYTNYAASVKGPFTISRDNAKNNVYLQRYSLKPEDTAVYYCAANQYRDVRYRPVDYWGQGTQVTVSS
  polyreactivity (PSR sort gate): high polyreactivity

## QVHLVDSGGGLFQAGGILRLSCAASGRTIATNAMGWYRQAPGKERELVAGISWRVGRTYYADSVKGRFTISRDNAKNSVYLQMFSLKPEDTAVYYCAANPVRSRYGYWGQGTQVTVSS
  polyreactivity (PSR sort gate): high polyreactivity

## QVHLVDSGGGLVLAGGSLRLSCAASGRNFERYAMGWYRKAPGKERELVAAISSSATRTYYADSVKGRFTISRDNAKNTVYLQMNSLKPEDTAVYYCAAKGAARDGSSEYNYWGQGTQVTVSS
  polyreactivity (PSR sort gate): high polyreactivity

## QVHLVDSGGGLVQAGGSLRLSCAASGIIFTGNAMGWYRQAPGKERELVAGITGSGGNTYYADSVKGRFTISSDNAKNTVYLQMNCLKPEDTAVYYCAARRHIFLLIIWSGRVDYWGQGTQVTVSS
  polyreactivity (PSR sort gate): low polyreactivity

## QVHLVDSGGGLVQAGGSLRLSCAASGSTIRYYAMGWYRQAPGKEREMVAAITSSGTSTYYADSVKGRFTISRDNAKNTVYLQMNSLKPEDTAVYYCAAPPVYKWVSSRYDYWGQGTQVTVSS
  polyreactivity (PSR sort gate): low polyreactivity

## QVHLVDSGGRLVQAGGSLRLSCSASGNNFPGYAMGLYRQAPGKEREFVATITSNDGTTYYADSVKGRFTISRDNAMNTFFLQMNSLKPEDTAVYYCASVVRQYGFDYLGQGTQVTVSS
  polyreactivity (PSR sort gate): low polyreactivity
